Test results taken from patent publication US8551742B2 (priority 2007, dated 2013).

Assays:
[1] = test system: MetK; assay: MetK mutants radioactive assay in vitro ([methyl-14C]methionine to SAMe); type: biochemical, E. coli; settings: 5 minute reaction time; C-terminal His tagged proteins unless untagged
Description: The metK gene from E. coli (Accession number AP—003499 or BAE77005) was cloned and overexpressed with either an N-terminal or a C-terminal His tag in pET28b vector. Site directed mutagenesis was performed using the C-terminal His tagged metK clone to generate the desired mutants. Expression of the mutant MetK proteins was confirmed.
The MetK mutants were purified (using the C-terminal His tag) and assayed in vitro. The wild type C-terminal His-tagged MetK protein was used as a control. The mutants were assayed using a radioactive assay. The assay conditions were as follows: • Assay Mix: • 1.0 mL 0.5 M HEPES/KOH, pH 8.0 • 0.5 mL 1.0 M KCl • 0.2 mL 1.0 M MgCl2 • 1.0 mL 100 mM ATP (disodium salt, pH 8.0 with KOH) • 0.1 mL 50 mM methionine • 0.1 mL NEN [methyl-^14C]methionine • 6.6 mL H2O • 25 mM EDTA pH 8.0 stop for assays.
45 μl of assay mix was added to an Eppendorf tube and 5 μL of enzyme (normalized data shown in Table 13. The reaction was incubated at room temperature (or 25° C.) for a desired period (1 to 10 minutes). The reaction was stopped with the addition of 150 μL of 25 mM EDTA. 100 μL of the reaction was spotted onto a 2.5 cm diameter Whatman P-81 phosphocellulose filter circle (labeled in pencil). The filters were washed with 3 L of distilled water, air-dried and placed in scintillation vials with aquasol. The emissions were counted using a window that extends from ^14C to about 0. Assay efficiency and quench levels were determined by adding a known amount of counts of pure ^14C-SAM and processing through the whole procedure. Backgrounds are typically<100 cpm (total counts ca. 10^5 cpm per reaction).

[2] = test system: MetK; settings: literature reference; cited from earlier work

B1: Gly 77 Val (protein, UniProt P0A817 2-384, looked up, variant G77V)
S-adenosylmethionine synthase: AKHLFTSESVSEGHPDKIADQISDAVLDAILEQDPKARVACETYVKTGMVLVGGEITTSAWVDIEEITRNTVREIVYVHSDMGFDANSCAVLSAIGKQSPDINQGVDRADPLEQGAGDQGLMFGYATNETDVLMPAPITYAHRLVQRQAEVRKNGTLPWLRPDAKSQVTFQYDDGKIVGIDAVVLSTQHSEEIDQKSLQEAVMEEIIKPILPAEWLTSATKFFINPTGRFVIGGPMGDCGLTGRKIIVDTYGGMARHGGGAFSGKDPSKVDRSAAYAARYVAKNIVAAGLADRCEIQVSYAIGVAEPTSIMVETFGTEKVPSEQLTLLVREFFDLRPYGLIQMLDLLHPIYKETAAYGHFGREHFPWEKTDKAQLLRDAAGLK
Activity (CPM SAMe/ μg purified protein/min) [1]: 6.9 CPM SAMe/ μg purified protein/min

B2: Cys 90 Ser (protein, UniProt P0A817 2-384, looked up, variant C90S)
S-adenosylmethionine synthase: AKHLFTSESVSEGHPDKIADQISDAVLDAILEQDPKARVACETYVKTGMVLVGGEITTSAWVDIEEITRNTVREIGYVHSDMGFDANSSAVLSAIGKQSPDINQGVDRADPLEQGAGDQGLMFGYATNETDVLMPAPITYAHRLVQRQAEVRKNGTLPWLRPDAKSQVTFQYDDGKIVGIDAVVLSTQHSEEIDQKSLQEAVMEEIIKPILPAEWLTSATKFFINPTGRFVIGGPMGDCGLTGRKIIVDTYGGMARHGGGAFSGKDPSKVDRSAAYAARYVAKNIVAAGLADRCEIQVSYAIGVAEPTSIMVETFGTEKVPSEQLTLLVREFFDLRPYGLIQMLDLLHPIYKETAAYGHFGREHFPWEKTDKAQLLRDAAGLK
Activity (CPM SAMe/ μg purified protein/min) [1]: 23.2 CPM SAMe/ μg purified protein/min
Expected Effect on SAMe synth: % of WT activity [2]: Only 10% of WT

B3: WT control: wild type C-terminal His-tagged MetK protein used as a control (protein, UniProt P0A817 2-384, looked up)
S-adenosylmethionine synthase: AKHLFTSESVSEGHPDKIADQISDAVLDAILEQDPKARVACETYVKTGMVLVGGEITTSAWVDIEEITRNTVREIGYVHSDMGFDANSCAVLSAIGKQSPDINQGVDRADPLEQGAGDQGLMFGYATNETDVLMPAPITYAHRLVQRQAEVRKNGTLPWLRPDAKSQVTFQYDDGKIVGIDAVVLSTQHSEEIDQKSLQEAVMEEIIKPILPAEWLTSATKFFINPTGRFVIGGPMGDCGLTGRKIIVDTYGGMARHGGGAFSGKDPSKVDRSAAYAARYVAKNIVAAGLADRCEIQVSYAIGVAEPTSIMVETFGTEKVPSEQLTLLVREFFDLRPYGLIQMLDLLHPIYKETAAYGHFGREHFPWEKTDKAQLLRDAAGLK
modifications: C-terminal His tag
Activity (CPM SAMe/ μg purified protein/min) [1]: 995.4 CPM SAMe/ μg purified protein/min

B4: Cys 90 Ala (protein, UniProt P0A817 2-384, looked up, variant C90A)
S-adenosylmethionine synthase: AKHLFTSESVSEGHPDKIADQISDAVLDAILEQDPKARVACETYVKTGMVLVGGEITTSAWVDIEEITRNTVREIGYVHSDMGFDANSAAVLSAIGKQSPDINQGVDRADPLEQGAGDQGLMFGYATNETDVLMPAPITYAHRLVQRQAEVRKNGTLPWLRPDAKSQVTFQYDDGKIVGIDAVVLSTQHSEEIDQKSLQEAVMEEIIKPILPAEWLTSATKFFINPTGRFVIGGPMGDCGLTGRKIIVDTYGGMARHGGGAFSGKDPSKVDRSAAYAARYVAKNIVAAGLADRCEIQVSYAIGVAEPTSIMVETFGTEKVPSEQLTLLVREFFDLRPYGLIQMLDLLHPIYKETAAYGHFGREHFPWEKTDKAQLLRDAAGLK
Activity (CPM SAMe/ μg purified protein/min) [1]: Same as WT
Expected Effect on SAMe synth: % of WT activity [2]: Only 10% of WT

B5: Asp 118 Asn (protein, UniProt P0A817 2-384, looked up, variant D118N)
S-adenosylmethionine synthase: AKHLFTSESVSEGHPDKIADQISDAVLDAILEQDPKARVACETYVKTGMVLVGGEITTSAWVDIEEITRNTVREIGYVHSDMGFDANSCAVLSAIGKQSPDINQGVDRADPLEQGAGNQGLMFGYATNETDVLMPAPITYAHRLVQRQAEVRKNGTLPWLRPDAKSQVTFQYDDGKIVGIDAVVLSTQHSEEIDQKSLQEAVMEEIIKPILPAEWLTSATKFFINPTGRFVIGGPMGDCGLTGRKIIVDTYGGMARHGGGAFSGKDPSKVDRSAAYAARYVAKNIVAAGLADRCEIQVSYAIGVAEPTSIMVETFGTEKVPSEQLTLLVREFFDLRPYGLIQMLDLLHPIYKETAAYGHFGREHFPWEKTDKAQLLRDAAGLK
Activity (CPM SAMe/ μg purified protein/min) [1]: 1.3 CPM SAMe/ μg purified protein/min
Expected Effect on SAMe synth: kcat reduction [2]: kcat reduction of ~ 103 fold

B6: Lys 245 Met (protein, UniProt P0A817 2-384, looked up, variant K245M)
S-adenosylmethionine synthase: AKHLFTSESVSEGHPDKIADQISDAVLDAILEQDPKARVACETYVKTGMVLVGGEITTSAWVDIEEITRNTVREIGYVHSDMGFDANSCAVLSAIGKQSPDINQGVDRADPLEQGAGDQGLMFGYATNETDVLMPAPITYAHRLVQRQAEVRKNGTLPWLRPDAKSQVTFQYDDGKIVGIDAVVLSTQHSEEIDQKSLQEAVMEEIIKPILPAEWLTSATKFFINPTGRFVIGGPMGDCGLTGRMIIVDTYGGMARHGGGAFSGKDPSKVDRSAAYAARYVAKNIVAAGLADRCEIQVSYAIGVAEPTSIMVETFGTEKVPSEQLTLLVREFFDLRPYGLIQMLDLLHPIYKETAAYGHFGREHFPWEKTDKAQLLRDAAGLK
Activity (CPM SAMe/ μg purified protein/min) [1]: 2.5 CPM SAMe/ μg purified protein/min
Expected Effect on SAMe synth: activity reduced / lower activity than WT [2]: 42,000 fold

B7: Asp 271 Ala (protein, UniProt P0A817 2-384, looked up, variant D271A)
S-adenosylmethionine synthase: AKHLFTSESVSEGHPDKIADQISDAVLDAILEQDPKARVACETYVKTGMVLVGGEITTSAWVDIEEITRNTVREIGYVHSDMGFDANSCAVLSAIGKQSPDINQGVDRADPLEQGAGDQGLMFGYATNETDVLMPAPITYAHRLVQRQAEVRKNGTLPWLRPDAKSQVTFQYDDGKIVGIDAVVLSTQHSEEIDQKSLQEAVMEEIIKPILPAEWLTSATKFFINPTGRFVIGGPMGDCGLTGRKIIVDTYGGMARHGGGAFSGKDPSKVARSAAYAARYVAKNIVAAGLADRCEIQVSYAIGVAEPTSIMVETFGTEKVPSEQLTLLVREFFDLRPYGLIQMLDLLHPIYKETAAYGHFGREHFPWEKTDKAQLLRDAAGLK
Activity (CPM SAMe/ μg purified protein/min) [1]: 0.4 (not duplicated) CPM SAMe/ μg purified protein/min
Expected Effect on SAMe synth: kcat reduction [2]: kcat reduction of ~ 103 fold

B8: His 14 Asn (protein, UniProt P0A817 2-384, looked up, variant H14N)
S-adenosylmethionine synthase: AKHLFTSESVSEGNPDKIADQISDAVLDAILEQDPKARVACETYVKTGMVLVGGEITTSAWVDIEEITRNTVREIGYVHSDMGFDANSCAVLSAIGKQSPDINQGVDRADPLEQGAGDQGLMFGYATNETDVLMPAPITYAHRLVQRQAEVRKNGTLPWLRPDAKSQVTFQYDDGKIVGIDAVVLSTQHSEEIDQKSLQEAVMEEIIKPILPAEWLTSATKFFINPTGRFVIGGPMGDCGLTGRKIIVDTYGGMARHGGGAFSGKDPSKVDRSAAYAARYVAKNIVAAGLADRCEIQVSYAIGVAEPTSIMVETFGTEKVPSEQLTLLVREFFDLRPYGLIQMLDLLHPIYKETAAYGHFGREHFPWEKTDKAQLLRDAAGLK
Activity (CPM SAMe/ μg purified protein/min) [1]: 7.7 CPM SAMe/ μg purified protein/min
Expected Effect on SAMe synth: activity reduced / lower activity than WT [2]: Activity reduced ~ 104 fold

B9: WT Untagged: untagged wild type MetK protein, Markham lab (protein, UniProt P0A817 2-384, looked up)
S-adenosylmethionine synthase: AKHLFTSESVSEGHPDKIADQISDAVLDAILEQDPKARVACETYVKTGMVLVGGEITTSAWVDIEEITRNTVREIGYVHSDMGFDANSCAVLSAIGKQSPDINQGVDRADPLEQGAGDQGLMFGYATNETDVLMPAPITYAHRLVQRQAEVRKNGTLPWLRPDAKSQVTFQYDDGKIVGIDAVVLSTQHSEEIDQKSLQEAVMEEIIKPILPAEWLTSATKFFINPTGRFVIGGPMGDCGLTGRKIIVDTYGGMARHGGGAFSGKDPSKVDRSAAYAARYVAKNIVAAGLADRCEIQVSYAIGVAEPTSIMVETFGTEKVPSEQLTLLVREFFDLRPYGLIQMLDLLHPIYKETAAYGHFGREHFPWEKTDKAQLLRDAAGLK
Activity (CPM SAMe/ μg purified protein/min) [1]: 5600 CPM SAMe/ μg purified protein/min

B10: Asp 238 Asn (protein, UniProt P0A817 2-384, looked up, variant D238N)
S-adenosylmethionine synthase: AKHLFTSESVSEGHPDKIADQISDAVLDAILEQDPKARVACETYVKTGMVLVGGEITTSAWVDIEEITRNTVREIGYVHSDMGFDANSCAVLSAIGKQSPDINQGVDRADPLEQGAGDQGLMFGYATNETDVLMPAPITYAHRLVQRQAEVRKNGTLPWLRPDAKSQVTFQYDDGKIVGIDAVVLSTQHSEEIDQKSLQEAVMEEIIKPILPAEWLTSATKFFINPTGRFVIGGPMGNCGLTGRKIIVDTYGGMARHGGGAFSGKDPSKVDRSAAYAARYVAKNIVAAGLADRCEIQVSYAIGVAEPTSIMVETFGTEKVPSEQLTLLVREFFDLRPYGLIQMLDLLHPIYKETAAYGHFGREHFPWEKTDKAQLLRDAAGLK
Activity (CPM SAMe/ μg purified protein/min) [1]: 1.9 CPM SAMe/ μg purified protein/min
Expected Effect on SAMe synth: kcat reduction [2]: kcat reduction of ~ 103 fold
